In patent US20210230570:
Positions count from the first letter of the chain named. Names and notes keep the numbering of the source.

B1: FIXa-Y155F/K247N/N249S/R318Y/R338E/T343R (protein)
chain 1: YNSGKLEEFVQGNLERECMEEKCSFEEAREVFENTERTTEFWKQYVDGDQCESNPCLNGGSCKDDINSYECWCPFGFEGKNCELDVTCNIKNGRCEQFCKNSADNKVVCSCTEGYRLAENQKSCEPAVPFPCGRVSVSQTSKLTR
chain 2: VVGGEDAKPGQFPWQVVLNGKVDAFCGGSIVNEKWIVTAAHCVETGVKITVVAGEHNIEETEHTEQNRSVIRIIPHHNYNAAINKYNHDIALLELDEPLVLNSYVTPICIADKEYTNIFLKFGSGYVSGWGRVFHKGYSALVLQYLRVPLVDRATCLESTKFRIYNNMFCAGFHEGGRDSCQGDSGGPHVTEVEGTSFLTGIISWGEECAMKGKYGIYTKVSRYVNWIKEKTKLT
B2: FIXa-K228N/K247N/N249S/R318Y/R338E/T343R/E410N (protein)
chain 1: B1 chain 1
chain 2: B1 chain 2 with K48N, E230N
B3: FIXa-Y155F/R318Y/T343R/R403E/E410N (protein)
chain 1: B1 chain 1
chain 2: B1 chain 2 with N67K, S69N, E158R, R223E, E230N
B4: FIXa-Y155F/R338E/T343R/R403E/E410N (protein)
chain 1: B1 chain 1
chain 2: B1 chain 2 with N67K, S69N, Y138R, R223E, E230N
B5: FIXa-K228N/K247N/N249S/R318Y/T343R/R403E/E410N (protein)
chain 1: B1 chain 1
chain 2: B1 chain 2 with K48N, E158R, R223E, E230N
B6: FIXa-K228N/K247N/N249S/R318Y/R338E/T343R/R403E/E410N (protein)
chain 1: B1 chain 1
chain 2: B1 chain 2 with K48N, R223E, E230N
B7: FIXa-K228N/I251S/R318Y/R338E/R403E/E410N (protein)
chain 1: B1 chain 1
chain 2: B1 chain 2 with K48N, N67K, S69N, I71S, R163T, R223E, E230N
B8: FIXa-Y155F/R338E/T343R/E410N (protein)
chain 1: B1 chain 1
chain 2: B1 chain 2 with N67K, S69N, Y138R, E230N
B9: FIXa-K228N/K247N/N249S/R318Y/R338E/T343R/R403E (protein)
chain 1: B1 chain 1
chain 2: B1 chain 2 with K48N, R223E
B10: FIXa-Y155F/R318Y/R338E/T343R/E410N (protein)
chain 1: B1 chain 1
chain 2: B1 chain 2 with N67K, S69N, E230N
B11: FIXa-Y155F/R318Y/R338E/T343R/R403E (protein)
chain 1: B1 chain 1
chain 2: B1 chain 2 with N67K, S69N, R223E
B12: FIXa-Y155F/N260S/R318Y/R338E/T343R/R403E/E410N (protein)
chain 1: B1 chain 1
chain 2: B1 chain 2 with N67K, S69N, N80S, R223E, E230N
B13: FIXa-K228N/R318Y/R338E/T343R/R403E/E410N (protein)
chain 1: B1 chain 1
chain 2: B1 chain 2 with K48N, N67K, S69N, R223E, E230N
B14: FIXa-Y155F/K247N/N249S/R403E/E410N (protein)
chain 1: B1 chain 1
chain 2: B1 chain 2 with Y138R, E158R, R163T, R223E, E230N
B15: FIXa-Y155F/K228N/I251S/R318Y/R338E/R403E/E410N (protein)
chain 1: B1 chain 1
chain 2: B1 chain 2 with K48N, N67K, S69N, I71S, R163T, R223E, E230N
B16: FIXa-K247N/N249S/R338E/R403E/E410N (protein)
chain 1: B1 chain 1
chain 2: B1 chain 2 with Y138R, R163T, R223E, E230N
B17: FIXa-R318Y/R338E/T343R/R403E (protein)
chain 1: B1 chain 1
chain 2: B1 chain 2 with N67K, S69N, R223E
B18: FIXa-R338E/T343R/R403E/E410N (protein)
chain 1: B1 chain 1
chain 2: B1 chain 2 with N67K, S69N, Y138R, R223E, E230N
B19: FIXa-Y155F/K247N/N249S/T343R/E410N (protein)
chain 1: B1 chain 1
chain 2: B1 chain 2 with Y138R, E158R, E230N
B20: FIXa-Y155F/K247N/N249S/R338E/R403E/E410N (protein)
chain 1: B1 chain 1
chain 2: B1 chain 2 with Y138R, R163T, R223E, E230N
B21: FIXa-R318Y/T343R/E410N (protein)
chain 1: B1 chain 1
chain 2: B1 chain 2 with N67K, S69N, E158R, E230N
B22: FIXa-Y155F/R318Y/R338E/T343R/R403E/E410N (protein)
chain 1: B1 chain 1
chain 2: B1 chain 2 with N67K, S69N, R223E, E230N
B23: FIXa-N260S/R318Y/R338E/T343R/R403E/E410N (protein)
chain 1: B1 chain 1
chain 2: B1 chain 2 with N67K, S69N, N80S, R223E, E230N
B24: FIXa-Y155F/R318Y/T343R/E410N (protein)
chain 1: B1 chain 1
chain 2: B1 chain 2 with N67K, S69N, E158R, E230N
B25: FIXa-Y155F/K247N/N249S/R318Y/R338E/T343R/R403E/E410N (protein)
chain 1: B1 chain 1
chain 2: B1 chain 2 with R223E, E230N
B26: FIXa-K247N/N249S/R318Y/R338E/T343R (protein)
chain 1: B1 chain 1
chain 2: B1 chain 2
B27: FIXa-D104N/K106S/R318Y/R338E/T343R/R403E/E410N (protein)
chain 1: B1 chain 1 with D104N, K106S
chain 2: B1 chain 2 with N67K, S69N, R223E, E230N

These proteins were tested against Factor X (FX), P00742.
Factor X (FX), P00742, sequence (P00742 whole entry, looked up): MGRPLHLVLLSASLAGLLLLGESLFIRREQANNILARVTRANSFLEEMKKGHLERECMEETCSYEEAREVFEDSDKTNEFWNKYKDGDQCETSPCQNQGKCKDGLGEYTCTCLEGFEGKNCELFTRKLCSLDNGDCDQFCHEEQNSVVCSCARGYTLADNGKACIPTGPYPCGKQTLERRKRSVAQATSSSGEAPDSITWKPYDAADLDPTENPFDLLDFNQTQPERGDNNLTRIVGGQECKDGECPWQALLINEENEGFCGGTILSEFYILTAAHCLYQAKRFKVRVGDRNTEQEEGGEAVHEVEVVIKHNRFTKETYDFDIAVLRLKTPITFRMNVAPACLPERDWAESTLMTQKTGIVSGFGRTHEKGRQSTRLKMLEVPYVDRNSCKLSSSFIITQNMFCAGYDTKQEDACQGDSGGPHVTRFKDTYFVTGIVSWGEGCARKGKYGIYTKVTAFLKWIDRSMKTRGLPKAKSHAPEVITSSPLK

Point of comparison: B12, kcat 5.8 s⁻¹. Against it:
- B1 — within 1.5-fold, 8.5 s⁻¹
- B6 — 1.7-fold higher, 9.9 s⁻¹
- B8 — within 1.5-fold, 6 s⁻¹
- B14 — 2.1-fold lower, 2.7 s⁻¹
- B19 — within 1.5-fold, 7.9 s⁻¹
- B26 — within 1.5-fold, 8 s⁻¹

Point of comparison: B8, kcat/KM 3.5e+08 M⁻¹ s⁻¹. Against it:
- B1 — within 1.5-fold, 3.6e+08 M⁻¹ s⁻¹
- B2 — 2.7-fold lower, 1.3e+08 M⁻¹ s⁻¹
- B5 — 4.9-fold lower, 7.1e+07 M⁻¹ s⁻¹
- B9 — within 1.5-fold, 2.9e+08 M⁻¹ s⁻¹
- B13 — within 1.5-fold, 2.7e+08 M⁻¹ s⁻¹
- B14 — 15-fold lower, 2.4e+07 M⁻¹ s⁻¹
- B19 — within 1.5-fold, 2.8e+08 M⁻¹ s⁻¹
- B21 — 5.6-fold lower, 6.2e+07 M⁻¹ s⁻¹
- B24 — 2.3-fold lower, 1.5e+08 M⁻¹ s⁻¹
- B26 — within 1.5-fold, 3.9e+08 M⁻¹ s⁻¹

Point of comparison: B21, kcat (s^-1) for activation of FX by FIXa in the Xase complex (FVIIIa, PC/PS vesicles, Ca2+), fluorogenic Spectrafluor FXa read-out 3.2 s⁻¹. Against it:
- B2 — within 1.5-fold, 4.7 s⁻¹
- B5 — 2.5-fold higher, 8.1 s⁻¹
- B9 — 3.4-fold higher, 10.9 s⁻¹
- B13 — 3.3-fold higher, 10.5 s⁻¹
- B24 — 1.6-fold higher, 5 s⁻¹

Point of comparison: B15, KM 0.0393 µM. Against it:
- B3 — within 1.5-fold, 0.034 µM
- B4 — 1.5-fold lower, 0.0259 µM
- B7 — within 1.5-fold, 0.0364 µM
- B10 — 1.5-fold lower, 0.0256 µM
- B11 — within 1.5-fold, 0.034 µM
- B16 — 1.6-fold lower, 0.025 µM
- B17 — within 1.5-fold, 0.0443 µM
- B18 — within 1.5-fold, 0.0347 µM
- B20 — within 1.5-fold, 0.0487 µM
- B22 — within 1.5-fold, 0.0272 µM
- B23 — within 1.5-fold, 0.0321 µM
- B25 — 1.5-fold lower, 0.0257 µM
- B27 — within 1.5-fold, 0.0266 µM

Point of comparison: B15, kcat of FX activation by FIXa in the Xase complex (FVIIIa, PC/PS vesicles, Ca2+) 5.3 s⁻¹. Against it:
- B3 — 1.7-fold higher, 8.8 s⁻¹
- B4 — within 1.5-fold, 5.7 s⁻¹
- B7 — within 1.5-fold, 7.5 s⁻¹
- B10 — 1.7-fold higher, 9.2 s⁻¹
- B11 — 1.5-fold higher, 8.2 s⁻¹
- B16 — within 1.5-fold, 4.8 s⁻¹
- B17 — within 1.5-fold, 6.7 s⁻¹
- B18 — 1.8-fold higher, 9.8 s⁻¹
- B20 — within 1.5-fold, 5 s⁻¹
- B22 — within 1.5-fold, 7.8 s⁻¹
- B23 — 1.7-fold higher, 8.9 s⁻¹
- B25 — 1.8-fold higher, 9.7 s⁻¹
- B27 — within 1.5-fold, 5.7 s⁻¹
